The nature of data set [1]: Kinetic assay of purified DAOCS with penicillin N as main substrate. It is filed as biochemical. Particulars: for penicillin N, 0.5 μg purified DAOCS, 30° C., 10 minutes; for Km: triplicate, Hanes-Woolf Plot. How it is done:
(§1) The cell extract (2 ml) of a candidate mutant was applied onto a HiTrap Q column (5 ml) pre-equilibrated with buffer B (50 mM Mops/pH 7.5, 1 mM DTT, 0.4 mM pefabloc SC, and 0.5 μg/ml leupeptin). Then, the column was washed with 20 ml of buffer B, followed by a further wash with 25 ml of buffer B containing 120 mM NaCl, and DAOCS was eluted off with 20 ml of buffer B containing 150 mM NaCl. The DAOCS containing fractions were pooled (10 ml), concentrated by UF 15 device (NMWL 5K; Millipore), and loaded onto a Hiload Superdex 75 (16/60) column pre-equilibrated with buffer B at a flow rate of 1 ml/min.
(§2) The standard penicillin G assay was followed for kinetic assay, but 20 μg of purified DAOCS was used and the concentration of α-ketoglutarate was reduced to 1 mM. Kinetic parameters were obtained from triplicate experiments by Hanes-Woolf Plot. For assays using penicillin N as a main substrate, a total volume of 240 μl reaction containing 50 mM Hepes/pH 7.5, 0.4 mM ascorbate, 0.1 mM FeSO4, 0.1 mM α-ketoglutarate, 0.1 mM penicillin N and 0.5 μg of purified DAOCS was incubated at 30° C. for 10 minutes, then the same volume of 10 mM EDTA/pH 7.5 was added, and the mixture was subjected to ultrafiltration with UF 0.5 device (NMWL 5000, Millipore). The filtrate was analyzed by HPLC using 25 mM potassium phosphate/pH 6.5 as a mobile phase. The retention time of DAOC and penicillin N was 12 minutes and 13.5 minutes, respectively The results of kinetic parameters are shown in Table 1, wherein the definition and calculation of the parameters are described in Lehninger et al. Principles of Biochemistry, 2nd Ed. Worth Publishers, New York (1993) which is incorporated herein for reference.

Data set [2] in a line: Kinetic assay of purified DAOCS with penicillin G (standard penicillin G assay, HPLC of cephalosporin G). In kind it is biochemical. Particulars: for penicillin G, 20 μg purified DAOCS, 1 mM α-ketoglutarate, 30° C.; for Km: triplicate, Hanes-Woolf Plot. On the procedure: For penicillin G, 20 μl of cell extracts was added into a standard 200 μl assay reaction containing 50 mM Mops/pH 7.5, 4 mM ascorbate, 1 mM FeSO4, 4 mM α-ketoglutarate and 7 mM penicillin G, and incubated at 30° C. for 20 minutes. The reaction was stopped by addition of 200 μl of ethanol, followed by a centrifugation at 15,000×g for 5 minutes. The concentration of cephalosporin G in supernatant was analyzed by HPLC with 40 μl injection. The mobile phase was 25 mM potassium phosphate/pH 6.5 with 19% acetonitrile at a flow rate of 1 ml/min. The retention time for cephalosporin G was 8.5 minutes and 12.5 minutes for penicillin G with detection at 215 nm, and the product at 8.5 minutes in DAOCS reaction was confirmed by ESI-LC/MS (positive): [M+H]^+=333. […] The different combinations of the mutated amino acids mentioned above were also constructed by site-directed mutagenesis.
as §1, §2

B1: YS125: mutated DAOCS with substitution N304L as disclosed in Chin H. S. et al (protein, UniProt P18548 1-311, looked up, variant N304L)
Deacetoxycephalosporin C …: MDTTVPTFSLAELQQGLHQDEFRRCLRDKGLFYLTDCGLTDTELKSAKDLVIDFFEHGSEAEKRAVTSPVPTMRRGFTGLESESTAQITNTGSYSDYSMCYSMGTADNLFPSGDFERIWTQYFDRQYTASRAVAREVLRATGTEPDGGVEAFLDCEPLLRFRYFPQVPEHRSAEEQPLRMAPHYDLSMVTLIQQTPCANGFVSLQAEVGGAFTDLPYRPDAVLVFCGAIATLVTGGQVKAPRHHVAAPRRDQIAGSSRTSSVFFLRPNADFTFSVPLARECGFDVSLDGETATFQDWIGGNYVLIRRTSKA
In the case of B1, in data set [1], the kcat is recorded as 0.415 ± 0.063 S^−1 and the Km was 18 ± 4 µM. Further, in data set [2], the kcat was 0.0402 ± 0.0006 S^−1 and the Km came out at 550 ± 120 µM.

B2: YS110: mutated penicillin expandase (DAOCS) with substitution Y184H (protein, UniProt P18548 1-311, looked up, variant Y184H)
Deacetoxycephalosporin C …: MDTTVPTFSLAELQQGLHQDEFRRCLRDKGLFYLTDCGLTDTELKSAKDLVIDFFEHGSEAEKRAVTSPVPTMRRGFTGLESESTAQITNTGSYSDYSMCYSMGTADNLFPSGDFERIWTQYFDRQYTASRAVAREVLRATGTEPDGGVEAFLDCEPLLRFRYFPQVPEHRSAEEQPLRMAPHHDLSMVTLIQQTPCANGFVSLQAEVGGAFTDLPYRPDAVLVFCGAIATLVTGGQVKAPRHHVAAPRRDQIAGSSRTSSVFFLRPNADFTFSVPLARECGFDVSLDGETATFQDWIGGNYVNIRRTSKA
In the case of B2, in data set [1], the kcat is 0.048 ± 0.005 S^−1 and the Km came to 295 ± 30 µM. In data set [2], the kcat turned out to be 0.0798 ± 0.0012 S^−1 and the Km was 950 ± 50 µM.

B3: YS59: mutated penicillin expandase (DAOCS) with substitution G79E (protein, UniProt P18548 1-311, looked up, variant G79E)
Deacetoxycephalosporin C …: MDTTVPTFSLAELQQGLHQDEFRRCLRDKGLFYLTDCGLTDTELKSAKDLVIDFFEHGSEAEKRAVTSPVPTMRRGFTELESESTAQITNTGSYSDYSMCYSMGTADNLFPSGDFERIWTQYFDRQYTASRAVAREVLRATGTEPDGGVEAFLDCEPLLRFRYFPQVPEHRSAEEQPLRMAPHYDLSMVTLIQQTPCANGFVSLQAEVGGAFTDLPYRPDAVLVFCGAIATLVTGGQVKAPRHHVAAPRRDQIAGSSRTSSVFFLRPNADFTFSVPLARECGFDVSLDGETATFQDWIGGNYVNIRRTSKA
As to B3, the kcat in data set [1] was determined as 0.178 ± 0.019 S^−1; in data set [2], 0.0315 ± 0.0003 S^−1. Further, the Km stood at 9 ± 3 µM in data set [1] and 750 ± 20 µM in data set [2].

B4: YS123: mutated penicillin expandase (DAOCS) with substitution H244Q (protein, UniProt P18548 1-311, looked up, variant H244Q)
Deacetoxycephalosporin C …: MDTTVPTFSLAELQQGLHQDEFRRCLRDKGLFYLTDCGLTDTELKSAKDLVIDFFEHGSEAEKRAVTSPVPTMRRGFTGLESESTAQITNTGSYSDYSMCYSMGTADNLFPSGDFERIWTQYFDRQYTASRAVAREVLRATGTEPDGGVEAFLDCEPLLRFRYFPQVPEHRSAEEQPLRMAPHYDLSMVTLIQQTPCANGFVSLQAEVGGAFTDLPYRPDAVLVFCGAIATLVTGGQVKAPRHQVAAPRRDQIAGSSRTSSVFFLRPNADFTFSVPLARECGFDVSLDGETATFQDWIGGNYVNIRRTSKA
Turning to B4, in data set [1], the kcat was determined as 0.260 ± 0.006 S^−1 and the Km came out at 9 ± 1.5 µM. In data set [2], the kcat is given as 0.0698 ± 0.0012 S^−1 and the Km was 1390 ± 90 µM.

B5: YS5: mutated penicillin expandase (DAOCS) with substitution V275I (protein, UniProt P18548 1-311, looked up, variant V275I)
Deacetoxycephalosporin C …: MDTTVPTFSLAELQQGLHQDEFRRCLRDKGLFYLTDCGLTDTELKSAKDLVIDFFEHGSEAEKRAVTSPVPTMRRGFTGLESESTAQITNTGSYSDYSMCYSMGTADNLFPSGDFERIWTQYFDRQYTASRAVAREVLRATGTEPDGGVEAFLDCEPLLRFRYFPQVPEHRSAEEQPLRMAPHYDLSMVTLIQQTPCANGFVSLQAEVGGAFTDLPYRPDAVLVFCGAIATLVTGGQVKAPRHHVAAPRRDQIAGSSRTSSVFFLRPNADFTFSIPLARECGFDVSLDGETATFQDWIGGNYVNIRRTSKA
B5: in data set [1], the kcat was found to be 0.252 ± 0.020 S^−1 and the Km was 12 ± 3 µM. Also, in data set [2], the kcat was 0.0502 ± 0.0012 S^−1 and the Km came to 1680 ± 200 µM.

B6: YS87: mutated penicillin expandase (DAOCS) with substitution T91A (protein, UniProt P18548 1-311, looked up, variant T91A)
Deacetoxycephalosporin C …: MDTTVPTFSLAELQQGLHQDEFRRCLRDKGLFYLTDCGLTDTELKSAKDLVIDFFEHGSEAEKRAVTSPVPTMRRGFTGLESESTAQITNAGSYSDYSMCYSMGTADNLFPSGDFERIWTQYFDRQYTASRAVAREVLRATGTEPDGGVEAFLDCEPLLRFRYFPQVPEHRSAEEQPLRMAPHYDLSMVTLIQQTPCANGFVSLQAEVGGAFTDLPYRPDAVLVFCGAIATLVTGGQVKAPRHHVAAPRRDQIAGSSRTSSVFFLRPNADFTFSVPLARECGFDVSLDGETATFQDWIGGNYVNIRRTSKA
With B6, in data set [1], the kcat turned out to be 0.247 ± 0.006 S^−1 and the Km came out at 9 ± 0.5 µM. Moreover, in data set [2], the kcat is reported as 0.0522 ± 0.0004 S^−1 and the Km was found to be 1360 ± 90 µM.

B7: YS103: mutated penicillin expandase (DAOCS) with substitution M188V (protein, UniProt P18548 1-311, looked up, variant M188V)
Deacetoxycephalosporin C …: MDTTVPTFSLAELQQGLHQDEFRRCLRDKGLFYLTDCGLTDTELKSAKDLVIDFFEHGSEAEKRAVTSPVPTMRRGFTGLESESTAQITNTGSYSDYSMCYSMGTADNLFPSGDFERIWTQYFDRQYTASRAVAREVLRATGTEPDGGVEAFLDCEPLLRFRYFPQVPEHRSAEEQPLRMAPHYDLSVVTLIQQTPCANGFVSLQAEVGGAFTDLPYRPDAVLVFCGAIATLVTGGQVKAPRHHVAAPRRDQIAGSSRTSSVFFLRPNADFTFSVPLARECGFDVSLDGETATFQDWIGGNYVNIRRTSKA
On to B7, for which, in data set [1], the kcat stood at 0.084 ± 0.002 S^−1 and the Km came out at 47 ± 0.5 µM. For the same molecule, in data set [2], the kcat is given as 0.0456 ± 0.0016 S^−1 and the Km amounted to 760 ± 170 µM.

B8: YS115: mutated penicillin expandase (DAOCS) with substitution M73T (protein, UniProt P18548 1-311, looked up, variant M73T)
Deacetoxycephalosporin C …: MDTTVPTFSLAELQQGLHQDEFRRCLRDKGLFYLTDCGLTDTELKSAKDLVIDFFEHGSEAEKRAVTSPVPTTRRGFTGLESESTAQITNTGSYSDYSMCYSMGTADNLFPSGDFERIWTQYFDRQYTASRAVAREVLRATGTEPDGGVEAFLDCEPLLRFRYFPQVPEHRSAEEQPLRMAPHYDLSMVTLIQQTPCANGFVSLQAEVGGAFTDLPYRPDAVLVFCGAIATLVTGGQVKAPRHHVAAPRRDQIAGSSRTSSVFFLRPNADFTFSVPLARECGFDVSLDGETATFQDWIGGNYVNIRRTSKA
For the molecule B8, in data set [1], the kcat amounted to 0.239 ± 0.009 S^−1 and the Km was 6 ± 3 µM. Moreover, in data set [2], the kcat is listed as 0.0627 ± 0.0021 S^−1 and the Km came to 740 ± 160 µM.

B9: YS53: mutated penicillin expandase (DAOCS) with substitution C281Y (protein, UniProt P18548 1-311, looked up, variant C281Y)
Deacetoxycephalosporin C …: MDTTVPTFSLAELQQGLHQDEFRRCLRDKGLFYLTDCGLTDTELKSAKDLVIDFFEHGSEAEKRAVTSPVPTMRRGFTGLESESTAQITNTGSYSDYSMCYSMGTADNLFPSGDFERIWTQYFDRQYTASRAVAREVLRATGTEPDGGVEAFLDCEPLLRFRYFPQVPEHRSAEEQPLRMAPHYDLSMVTLIQQTPCANGFVSLQAEVGGAFTDLPYRPDAVLVFCGAIATLVTGGQVKAPRHHVAAPRRDQIAGSSRTSSVFFLRPNADFTFSVPLAREYGFDVSLDGETATFQDWIGGNYVNIRRTSKA
B9: in data set [1], the kcat was 0.273 ± 0.014 S^−1 and the Michaelis-Menten constant (Km) is 6 ± 1 µM. In data set [2], the kcat was 0.0744 ± 0.0033 S^−1 and the Km was found to be 680 ± 340 µM.

As usually defined, the Km is the concentration of substrate that gives half-maximal velocity.

Source of the values: patent US6905854B2, “Mutated penicillin expandase and process for preparing 7-ADCA using the same” (Synmax Biochemical Co., Ltd., priority 2002, dated 2005).
